Source: publication PMC3285605

Tests used:
[1] = biological target: soluble form of vesicular stomatitis virus (VSV) glycoprotein G ectodomain (Gth, aa residues 1–422) (vesicular stomatitis virus (Mudd-Summer strain, Indiana serotype)); experiment: AUC
[2] = biological target: soluble form of vesicular stomatitis virus (VSV) glycoprotein G ectodomain (Gth, aa residues 1–422) (vesicular stomatitis virus (Mudd-Summer strain, Indiana serotype)); experiment: AUC; sedimentation velocity, pH 6.7, Gth at 0.4 mg/ml, 45,000 rpm, 15°C
[3] = biological target: soluble form of vesicular stomatitis virus (VSV) glycoprotein G ectodomain (Gth, aa residues 1–422) (vesicular stomatitis virus (Mudd-Summer strain, Indiana serotype)); experiment: AUC; sedimentation velocity, pH 6.7, Gth at 1.6 mg/ml, 45,000 rpm, 15°C

With “soluble form of vesicular stomatitis virus (VSV) glycoprotein G ectodomain (Gth, aa residues 1–422) (domain or fragment)” the fraction of the species of about 320 kDa at pH 6.0 [1] was 30%, the fraction of the species of about 1,600 kDa at pH 6.0 [1] was 70% and the fractional concentration of the 10.0 S species at 0.4 mg/ml, pH 5.7 [1] was 71%. The fractional concentration of the 10.0 S species at 1.6 mg/ml, pH 5.7 [1] was 55%, the fractional concentration of the 21.0 S species at 0.4 mg/ml, pH 5.7 [1] was 29% and the fractional concentration of the 21.0 S species at 1.6 mg/ml, pH 5.7 [1] was 45%. The fractional concentration of the 21.0 S species at 0.4 mg/ml, pH 6.7 [2] was 13%, the fractional concentration of the 10.0 S species at 1.6 mg/ml, pH 6.7 [3] was 40% and the fractional concentration of the 21.0 S species at 1.6 mg/ml, pH 6.7 [3] was 24%.
